Series [1] concerns the molecule itself. As to the kind of experiment: cryo-EM structure; cpAaLS(119, C37S, A85C) twisted tubes, helical reconstruction in three classes (0-, 18-, 28-Å gap); 50 mM Tris-HCl pH 8.5, 0.15 M NaCl, 1 mM TCEP.
Series [2] deals with the molecule itself. As to the kind of experiment: cryo-EM 2D classification; cpAaLS(119) capsomers without NaCl at pH 8.5; Titan Krios; 3D reconstruction unsuccessful (preferential orientation).
Series [3] deals with the molecule itself. Nature of the series: cryo-EM micrographs; Glacios microscope, micrographs of the assemblies; buffer of these samples not given.

Substitutions are numbered along the chain they refer to. Numbers in names are those of the source. Where “and” joins values, the source holds several entries; their conditions need not be identical. Equal values may be shown once.

B1: cpAaLS(119, C37S, A85C) (enzyme, Aquifex aeolicus)
chain: TLEQAIERAGTKHGNKGWEAALSAIEMANLFKSLRGTGGSGSSMQIYEGKLTAEGLRFGIVASRFNHALVDRLVEGAIDSIVRHGGREEDITLVRVPGSWEIPVAAGELARKEDIDAVIAIGVLIRGCTPHFDYIASEVSKGLANLSLELRKPITFGVITAD
notes: Aquifex aeolicus lumazine synthase (AaLS), from the new N-terminus at residue 120 to the native C-terminus; octapeptide linker connecting the native C- and N-termini; Aquifex aeolicus lumazine synthase (AaLS), from the native N-terminus to the new C-terminus at residue 119, with C37S and A85C; Made from cpAaLS(119) by two rounds of site-directed mutagenesis; source: E. coli BL21-Gold(DE3), …
Consider B1, for which, in series [1], the binding result was “binds”.

B2: circularly permuted Aquifex aeolicus lumazine synthase cpAaLS(119) (enzyme)
chain: B1 chain with S80C, C128A
notes: Aquifex aeolicus lumazine synthase (AaLS), from the new N-terminus at residue 120 to the native C-terminus; includes the α-helix(120–131); octapeptide linker connecting the native C- and N-termini; Aquifex aeolicus lumazine synthase (AaLS), from the native N-terminus to the new C-terminus at residue 119; source: E. coli BL21-Gold(DE3), purified (heating at 70 °C, anion exchange, SEC)
As a reminder, the stoichiometry N is the number of molecules, sites or subunits per partner or assembly. In the case of B2, the “stoichiometry N” value in series [2] was 5 and 10.

B3: circularly permuted Aquifex aeolicus lumazine synthase cpAaLS(84) (enzyme)
chain: ATPHFDYIASEVSKGLANLSLELRKPITFGVITADTLEQAIERAGTKHGNKGWEAALSAIEMANLFKSLRGTGGSGSSMQIYEGKLTAEGLRFGIVASRFNHALVDRLVEGAIDCIVRHGGREEDITLVRVPGSWEIPVAAGELARKEDIDAVIAIGVLIRG
notes: Aquifex aeolicus lumazine synthase (AaLS), from the new N-terminus at residue 85 to the native C-terminus; octapeptide linker connecting the native C- and N-termini; Aquifex aeolicus lumazine synthase (AaLS), from the native N-terminus to the new C-terminus at residue 84; source: E. coli BL21-Gold(DE3), purified (heating at 70 °C, anion exchange, SEC)
Take B3: the binding result in series [3] was “binds”.

The record behind these values is publication PMC11912573, “Dynamic Assembly of Pentamer-Based Protein Nanotubes” (ACS Nano, 2025).
